{"source": "paper PMC10539519", "about": "“Computational remodeling of an enzyme conformational landscape for altered substrate selectivity” (Nature Communications, 2023)", "molecules": {"B1": {"name": "E. coli aspartate aminotransferase (AAT) (Escherichia coli K-12) (protein)", "chain": "MFENITAAPADPILGLADLFRADERPGKINLGIGVYKDETGKTPVLTSVKKAEQYLLENETTKNYLGIDGIPEFGRCTQELLFGKGSALINDKRARTAQTPGGTGALRVAADFLAKNTSVKRVWVSNPSWPNHKSVFNSAGLEVREYAYYDAENHTLDFDALINSLNEAQAGDVVLFHGCCHNPTGIDPTLEQWQTLAQLSVEKGWLPLFDFAYQGFARGLEEDAEGLRAFAAMHKELIVASSYSKNFGLYNERVGACTLVAADSETVDRAFSQMKAAIRANYSNPPAHGASVVATILSNDALRAIWEQELTDMRQRIQRMRQLFVNTLQEKGANRDFSFIIKQNGMFSFSGLTKEQVLRLREEFGVYAVASGRVNVAGMTPDNMAPLCEAIVAVL", "notes": "full-length, N-terminal His-tag, expressed in E. coli BL21-Gold (DE3), Ni-NTA purified; 90 kDa homodimer, PLP-dependent"}, "B2": {"name": "E. coli aspartate aminotransferase (AAT) (Escherichia coli K-12; K37F/N64T/T43I) (protein)", "chain": "B1 chain with K37F, T43I, N64T", "notes": "as for B1"}, "B3": {"name": "E. coli aspartate aminotransferase (AAT) (Escherichia coli K-12; K37F/N64Y/T43I) (protein)", "chain": "B1 chain with K37F, T43I, N64Y", "notes": "as for B1"}, "B4": {"name": "E. coli aspartate aminotransferase (AAT) (Escherichia coli K-12; K37Y/N285S/N64L/T104S/T43I/V35L) (protein)", "chain": "B1 chain with V35L, K37Y, T43I, N64L, T104S, N285S", "notes": "as for B1"}, "B5": {"name": "E. coli aspartate aminotransferase hexamutant HEX (enzyme)", "chain": "B1 chain with V35L, K37Y, T43I, N64L, T104S, N285S", "modifications": "imine bond between PLP and K246 (internal aldimine)", "notes": "aspartate aminotransferase (AAT), Escherichia coli, UniProt P00509, with six mutations; T104S and N285S are T109S and N297S in the numbering of PDB 1AHE and 1AHY; Mutant genes were ligated into pET-11a; the proteins were purified on Ni-NTA; source: E. coli BL21-Gold (DE3), purified (Ni-NTA, gel filtration)"}, "B6": {"name": "wild-type E. coli aspartate aminotransferase (enzyme)", "chain": "B1 chain", "modifications": "imine bond between PLP and K246 (internal aldimine)", "notes": "aspartate aminotransferase (AAT), Escherichia coli, UniProt P00509; Gene with N-terminal His-tag in pET-45b; also called AAT; WT; source: E. coli BL21-Gold (DE3), purified (Ni-NTA, gel filtration)"}, "B7": {"name": "E. coli aspartate aminotransferase (AAT) (Escherichia coli K-12; K37F/N64S/T43C) (protein)", "chain": "B1 chain with K37F, T43C, N64S", "notes": "as for B1"}, "B8": {"name": "E. coli aspartate aminotransferase (AAT) (Escherichia coli K-12; K37I/N64S/T43F/V35A) (protein)", "chain": "B1 chain with V35A, K37I, T43F, N64S", "notes": "as for B1"}}, "key": {"[1]": {"target": "T1, E. coli aspartate aminotransferase (AAT) (Escherichia coli, UniProt P00509)", "T1 construct": "gene aspC; full-length, N-terminal His-tag, expressed in E. coli BL21-Gold (DE3), Ni-NTA purified; 90 kDa homodimer, PLP-dependent", "T1 sequence (P00509 1-396)": "B1 chain", "assay": "room-temperature X-ray crystallography", "type": "binding"}, "purified protein [2]": {"substrate": "N[C@@H](CC(=O)O)C(=O)O", "assay": "purified protein", "details": "co-substrate α-ketoglutarate (fixed, 0.1563–1.25 mM range), 16 µM PLP, 5 mM NAD+, 100 mM potassium phosphate pH 8, 37 °C"}, "purified protein [3]": {"substrate": "O=C(O)CCC(=O)C(=O)O", "assay": "purified protein", "type": "biochemical, Escherichia coli", "details": "α-ketoglutarate varied 0.002–20 mM, co-substrate 10–20 mM L-aspartate or L-phenylalanine, substrate inhibition, 16 µM PLP, pH 8, 37 °C"}, "purified protein [4]": {"substrate": "N[C@@H](Cc1ccccc1)C(=O)O", "assay": "purified protein", "type": "biochemical, Escherichia coli", "details": "co-substrate α-ketoglutarate (fixed, 0.1563–1.25 mM range), 16 µM PLP, 5 mM NAD+, 100 mM potassium phosphate pH 8, 37 °C"}, "[5]": {"target": "the molecule itself", "assay": "crystal structure; X-ray crystallography, space group P 6_(3), two chains in the asymmetric unit; crystals grown with 20 mM maleate and ammonium sulfate, with or without soaking to remove maleate; data at 278 K (AIFS at 100 K; WT, HEX, VFIT also at 303 K)"}}, "note": "Changes are numbered by the printed parent chain. Names and notes keep the numbering of the source."}
{"molecule": "Cc1ncc(COP(=O)(O)O)c(C=O)c1O", "note": "[pyridoxal phosphate]", "values": [{"measurement": "room-temperature X-ray crystallography", "setting": "[1]; covalent internal aldimine with K246, 10 µM PLP in crystallisation", "value": "Restraints for PLP in its internal aldimine form were generated using phenix.elbow"}]}
{"molecule": "O=C(O)/C=C\\C(=O)O", "note": "[maleate]", "values": [{"measurement": "room-temperature X-ray crystallography", "setting": "[1]; co-crystallised with 20 mM maleate, 278 K, contacts Arg280 and Arg374, closed conformation", "value": "electrostatic interactions between maleate and the side chains of Arg280 and Arg374"}]}
{"molecule": "B1", "values": [{"measurement": "Km", "setting": "purified protein [2]", "value": "210 ± 30", "unit": "µM"}, {"measurement": "kcat", "setting": "purified protein [2]", "value": 7.8, "unit": "s⁻¹"}, {"measurement": "kcat/Km", "setting": "purified protein [2]", "value": "37000 ± 5000", "unit": "M⁻¹ s⁻¹"}, {"measurement": "Km", "setting": "purified protein [3]", "value": "65 ± 5", "unit": "µM"}, {"measurement": "kcat", "setting": "purified protein [3]", "value": "12.2 ± 0.3", "unit": "s–1"}]}
{"molecule": "B2", "values": [{"measurement": "Km", "setting": "purified protein [2]", "value": "27 ± 3", "unit": "µM"}, {"measurement": "kcat", "setting": "purified protein [2]", "value": 0.9, "unit": "s⁻¹"}, {"measurement": "kcat/Km", "setting": "purified protein [2]", "value": "33000 ± 4000", "unit": "M⁻¹ s⁻¹"}, {"measurement": "Km", "setting": "purified protein [4]", "value": "900 ± 60", "unit": "µM"}, {"measurement": "kcat", "setting": "purified protein [4]", "value": "22.8 ± 0.4", "unit": "s⁻¹"}, {"measurement": "kcat/Km", "setting": "purified protein [4]", "value": "25000 ± 2000", "unit": "M⁻¹ s⁻¹"}]}
{"molecule": "B3", "values": [{"measurement": "Km", "setting": "purified protein [2]", "value": "120 ± 10", "unit": "µM"}, {"measurement": "kcat", "setting": "purified protein [2]", "value": 0.263, "unit": "s⁻¹"}, {"measurement": "kcat/Km", "setting": "purified protein [2]", "value": 2200, "unit": "M⁻¹ s⁻¹"}, {"measurement": "Km", "setting": "purified protein [4]", "value": "420 ± 40", "unit": "µM"}, {"measurement": "kcat", "setting": "purified protein [4]", "value": "17.3 ± 0.4", "unit": "s⁻¹"}, {"measurement": "kcat/Km", "setting": "purified protein [4]", "value": "41000 ± 4000", "unit": "M⁻¹ s⁻¹"}]}
{"molecule": "B4", "values": [{"measurement": "Km", "setting": "purified protein [2]", "value": "59 ± 7", "unit": "µM"}, {"measurement": "kcat", "setting": "purified protein [2]", "value": 1.32, "unit": "s⁻¹"}, {"measurement": "kcat/Km", "setting": "purified protein [2]", "value": "22000 ± 3000", "unit": "M⁻¹ s⁻¹"}, {"measurement": "Km", "setting": "purified protein [4]", "value": "270 ± 30", "unit": "µM"}, {"measurement": "kcat", "setting": "purified protein [4]", "value": "9 ± 0.2", "unit": "s⁻¹"}, {"measurement": "kcat/Km", "setting": "purified protein [4]", "value": "33000 ± 4000", "unit": "M⁻¹ s⁻¹"}]}
{"molecule": "B5", "values": [{"measurement": "stoichiometry N", "setting": "[5]", "value": 2}]}
{"molecule": "B6", "values": [{"measurement": "stoichiometry N", "setting": "[5]", "value": 2}]}
{"molecule": "B7", "values": [{"measurement": "Km", "setting": "purified protein [2]", "value": "68 ± 7", "unit": "µM"}, {"measurement": "kcat", "setting": "purified protein [2]", "value": 6, "unit": "s⁻¹"}, {"measurement": "kcat/Km", "setting": "purified protein [2]", "value": "88000 ± 9000", "unit": "M⁻¹ s⁻¹"}, {"measurement": "Km", "setting": "purified protein [4]", "value": "12000 ± 1000", "unit": "µM"}, {"measurement": "kcat", "setting": "purified protein [4]", "value": "87 ± 3", "unit": "s⁻¹"}, {"measurement": "kcat/Km", "setting": "purified protein [4]", "value": "7200 ± 700", "unit": "M⁻¹ s⁻¹"}]}
{"molecule": "B8", "values": [{"measurement": "Km", "setting": "purified protein [2]", "value": "320 ± 30", "unit": "µM"}, {"measurement": "kcat", "setting": "purified protein [2]", "value": 2.42, "unit": "s⁻¹"}, {"measurement": "kcat/Km", "setting": "purified protein [2]", "value": 7600, "unit": "M⁻¹ s⁻¹"}, {"measurement": "Km", "setting": "purified protein [4]", "value": "2600 ± 200", "unit": "µM"}, {"measurement": "kcat", "setting": "purified protein [4]", "value": "0.54 ± 0.01", "unit": "s⁻¹"}, {"measurement": "kcat/Km", "setting": "purified protein [4]", "value": "210 ± 20", "unit": "M⁻¹ s⁻¹"}]}
